In the nanobody polyreactivity screen of Harvey et al. (2022):

test: yeast display, Sf9 membrane polyspecificity reagent, FACS + sequencing; frameworks hold sequencing errors
How it was run: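 In a synthetic yeast display library (Saccharomyces cerevisiae BJ5465), nanobody expression was induced with galactose for 36–48 hours. FACS gates were set low and high (top ~1%) using anti-HA fluorescence for expression and streptavidin fluorescence for binding of the Sf9 membrane reagent. Each polyreactivity label is drawn from the gate of origin.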

| Sequence | polyreactivity (PSR sort gate) |
| --- | --- |
| QVQLVESGGGLVQAGGSLRLSCAASGRIFVYYAMGWYRQAPGKERELVATITSSDITNDADSVKGRFTISCDNAKNTVYLQMNSLKPEDTAVYYCARDYYVYSSGHVPLDYWGQGTQVTVSS | low polyreactivity |
| QVQLVESGGGLVQAGGSLRLSCAASGRIFVYYTMGWYRPAPGKERELVAAIRSSGGSTYADSVKGRFTISRDNAKNTVSLQMNSLKPEDTAVYYCNAGYRSWQYRSGLYGDYNYWGQGTQVTVSS | high polyreactivity |
| QVQLVESGGGLVQAGGSLRLSCAASGRIFVYYVMGWYRQAPGKERELVAAITYSGGSTYYADSVKGRFTISRDNAKNTVYLQMNSLKPEDTAVYYCNKVDAFGIVRLYYWGQGTQVTVSS | low polyreactivity |
| QVQLVESGGGLVQAGGSLRLSCAASGRIFWAYAMGWYRQAPGKERELVADITSGGSTYYADSVKGRFTISRDNAKNNVYLQMNSLKPEDTAVYYCAVGSKWVDDSPEDEYWGQGTQVTVSS | low polyreactivity |
| QVQLVESGGGLVQAGGSLRLSCAASGRIFWDNAMGWYRQAAGKEWELVAAISDSVVITYYADSVKGRFTISRDNAKNTVYLQMNSLKPEDTAVYYCAADKRGTVYLSSLWMDYWGQGTQVTVSS | low polyreactivity |
| QVQLVESGGGLVQAGGSLRLSCAASGRIFWDYAMGWYRQAPGKERELVAVITFSGDSTYYADSVKGRFTISRDYAKNTVYLQMNSLKPEDTAVYYCAAARAIRQFWYVATFEYWGQGTQVTVSS | low polyreactivity |
| QVQLVESGGGLVQAGGSLRLSCAASGRIFWEYAMGWYRQAPGKERELVAAITWRVGSTYYADSVKGRFTISRDNAKNTVYLQMNSLKPEDTAVYYCVARSQSIRYTYIRSYYWGQGTQVTVSS | low polyreactivity |
| QVQLVESGGGLVQAGGSLRLSCAASGRIFWFYTMGWYRQAPGKERELVARITTSGGSTYYADSVKGRFTISRDNAKNTVYLQMNSLKPEDTAVYYCAARPRDYHSFSLDYYYWGQGTQVTVSS | high polyreactivity |
| QVQLVESGGGLVQAGGSLRLSCAASGRIFWGNAMGWYRQAPGKEREFVAGITGIGGRTYYADSVKGRFTISRDNAKNTVYLQMNSLKPEDTAVYYCARTWAVSYGYAMDYWGQGTQVTVSS | low polyreactivity |
| QVQLVESGGGLVQAGGSLRLSCAASGRIFWGYDMGSYRQAPGKQTEFVAAISSGGGRTYYADSVKGRFTISRDNAKNPVYLPMNSLKPEDTAVYYCNAELNWYYYIHLDYWGQGTQVTVSS | low polyreactivity |
| QVQLVESGGGLVQAGGSLRLSCAASGRIFWGYTMGWYRQAPGKERELVAAITFRGATTYYADSVKGRFTISRDNAKNTVYLQLNSLKPEDTAVYYCAKRGYASGSKWDYGYWGQGTQVTVSS | high polyreactivity |
| QVQLVESGGGLVQAGGSLRLSCAASGRIFWGYVMGWYRQAPGKERELVAAISSGGDTHYADSVKGRFTISRDNAKNTVYLQMNSLKPEDTAVYYCAKENQYYDSKVAGVLTGLYDYWGQGTQVTVSS | low polyreactivity |
| QVQLVESGGGLVQAGGSLRLSCAASGRIFWHNAMGWYRQAPGKERELVAAITGGGSTYYADSVKGRFTISRDNAKNTVYLQMNSLKPEDTAVYYCATLGSLRYYWPGYDYWGQGTQVTVSS | low polyreactivity |
| QVQLVESGGGLVQAGGSLRLSCAASGRIFWHNAMGWYRQAPGTERELVAAITGGGSTYYADSVKGRFTISRDNAKNTVYLQMNSLKPEDTAVYYCATLGSLRYYWPGYDYWGQGTQVTVSS | low polyreactivity |
| QVQLVESGGGLVQAGGSLRLSCAASGRIFWHYAMGWYRQAPGKERELVAAISSRGGSTYYADSVKGRFTISRDNAKNTVYLQMNSLKPEDTAVYYCAADRVDGGSYYHSGYWGQGTQVTVSS | high polyreactivity |
| QVQLVESGGGLVQAGGSLRLSCAASGRIFWLYAMGWYRQAPGKERELVAAITGIGGSTYYADSVKGRFTISRDNAKNTVYLQMNSLKPEDTAVYYCAARYPATYPSMGYWGQGTQVTVSS | low polyreactivity |
| QVQLVESGGGLVQAGGSLRLSCAASGRIFWPYARGWYRPAPGKERELVAAITSGGSTYYADSVKGRFTISRDNAKNTVYLQMNSLKQEDTAVYYCAKLSSGVSVPVAYGGIKRYNSWGQGTQVTVSS | low polyreactivity |
| QVQLVESGGGLVQAGGSLRLSCAASGRIFWQYAMGWYRQAPGKERELVAGITYRGGSTYYADSVKGRFTISRDNAKQTVYLLMNSLKPEDTAVYYCAADTYLSSQYSDRYGYDYWGQGTQVTVSS | high polyreactivity |
| QVQLVESGGGLVQAGGSLRLSCAASGRIFWRNTMGWYRQAPGKERELVAAITRTGGSTYYADSVKGRFTISRDNAKNTVYLQMNSLKPEDTAVYYCAAQQHYGDGYWGQGTQVTVSS | high polyreactivity |
| QVQLVESGGGLVQAGGSLRLSCAASGRIFWRYAMGWYRQAPGKERELVAAITSGGNTYYADSVKGRFTISRDNAKNTVYLQMNSLKPEDTAVYYCATVFSVQGWYFGMNYWGQGTQVTVSS | low polyreactivity |

| Sequence | polyreactivity (PSR sort gate) |
| --- | --- |
| QVQLVESGGGLVQAGGSLRLSCAASGRIFWRYAMGWYRQAPGKERELVAAITWSVGSTYYADSVKGRFTISRDNAKNTVYLLMNSLKPEDTAVYYCATDVKNVRYRYRYDYWGQGTQVTVSS | low polyreactivity |
| QVQLVESGGGLVQAGGSLRLSCAASGRIFWSNAMGWYRQAPGKERELVAAIRNTCSTNYADSVKGRFTISRDNAKNTVYLQMISLKPEDTGVYYCAADRASYFTYAYGYWGQGTQVTVSS | high polyreactivity |
| QVQLVESGGGLVQAGGSLRLSCAASGRIFWSNAMGWYRQAPGKERELVATISSGGRTYYADSVKGRFTISRDNAKNTVYLQMNSLKPEDTAVYYCNATSGYKHAWRSENGYWGQGTQVTVSS | low polyreactivity |
| QVQLVESGGGLVQAGGSLRLSCAASGRIFWTYAMGWYRQAPGKERELVAAINSSDGTYYADSVKGRFTISRDNAKNTVYLQMNSLKPEDTAVYYCNADRDALVGYDYDYWGQVTQVTVSS | low polyreactivity |
| QVQLVESGGGLVQAGGSLRLSCAASGRIFWTYAMGWYSQAPGKERELVASITWSGGSTYYADSVKGRFTISRDNAKNTFYLQMNSLKPEDTAVYYCKTDVLAPYDSGYWGQGTQVTVSS | low polyreactivity |
| QVQLVESGGGLVQAGGSLRLSCAASGRIFWVNAMGWYIQAPGKERELVAVISRGGSTTYADSVKGRFTISRDNEKNTVYLQMNSLKPEDTAVYYCAADAYSHAFLYYGYDYWGQGTQVTVSS | low polyreactivity |
| QVQLVESGGGLVQAGGSLRLSCAASGRIFWWYSMGWYRQAPVKERELVAAISTGSRTYYADSVKGRFTISRDNAKNTVFLQMNSLKPEDTAVYYCVADGLYSVSRSSIFEYWGQGTQVTVSS | low polyreactivity |
| QVQLVESGGGLVQAGGSLRLSCAASGRIFWYNAMGWYRPAPGKERELVASITRGNNTYYADSVKGRFTISRDNAKTTVYLQMNSLKPEDTAVYYCAKRYIYRYYWGQGTQVTVSS | high polyreactivity |
| QVQLVESGGGLVQAGGSLRLSCAASGRIFWYNAMGWYRQAPGKERELVAGITRSGGRTYYADSVKGRFTISRDNAKNTVYLQMNSLKPEDTAVYYCAAAPYARRDYEYWGQGTQVTVSS | high polyreactivity |
| QVQLVESGGGLVQAGGSLRLSCAASGRIFWYNAMGWYRQAPGKERELVAGITSGGRTNYADSVKGRFTISRDNAKNTVYLQMNSLKPEDTAVYYCAADVPPGEVVTNDYWGQGTQVTVSS | low polyreactivity |
| QVQLVESGGGLVQAGGSLRLSCAASGRIFWYNAMGWYRQAPGKERELVAVITSGTSTYYADSVKGRFTISRDNAKNTVYVHMNSLKPDDTAVYYCAARYLSRYSERHYYDWGQGTQVTVSS | high polyreactivity |
| QVQLVESGGGLVQAGGSLRLSCAASGRIFWYNAMGWYRQAPGKERGLVAVISTRGGRTYYADSVKGRFTISRDNAKNTVYLQMNSLKPEDTAVYYCAAEFLNKAVGGVTSIYDSWGQGTQVTVSS | low polyreactivity |
| QVQLVESGGGLVQAGGSLRLSCAASGRIFYAYTMGWYRQAPGKERELVAAISGSGSTYYADSVKGRFTISRDNAKNNVYLQMNSLKPEDTAVYYCAKRYRFHFWGQGTQVTVSS | low polyreactivity |
| QVQLVESGGGLVQAGGSLRLSCAASGRIFYAYTMGWYRQAPGKERELVAAISGSGSTYYADSVKGRFTISRDNAKNTVYLQMNSLKPEDTAVYYCAADVTGGRKYDYWGQGTQVTLSS | low polyreactivity |
| QVQLVESGGGLVQAGGSLRLSCAASGRIFYAYTMGWYRQAPGKESELVAAIRYGGGSTYYADSVKGRFTISRDNAKNTVYLLMNSLIPEDTAVYYCARDRYNLYSRSYYWGQGTQVTVSS | low polyreactivity |
| QVQLVESGGGLVQAGGSLRLSCAASGRIFYDNAMGWYRQAPGKERELVAAISYSGDSTYYADSVKGRFTISRDNAKNTVYLQMNSLKPEDTAVYYCAAVYISQGAFAYDYWGQGTQVTVTS | low polyreactivity |
| QVQLVESGGGLVQAGGSLRLSCAASGRIFYDYAMGWYRQAPGKERELVAAISKGGGSTYYADSVKGRFTISRDNAKNTVYFQMNSLKPEDTAVYYCASSTSHTTDTRYDYWGQGTQVTVSS | low polyreactivity |
| QVQLVESGGGLVQAGGSLRLSCAASGRIFYDYTMGWYRPAPGKERELVAAINSGGGSTYYADSVKGRFTISRDNAKITVYLQMNSLKPEDTAVYYCNADGQWNIWEYDYWGQGTQVTVSS | high polyreactivity |
| QVQLVESGGGLVQAGGSLRLSCAASGRIFYDYTMGWYRQAPGKERELVAAINSGGGSTYYADSVKGRFTISRDNAKITVYLQMNSLKPEDTAVYYCNADGQWNIWEYDYWGQGTQVTVSS | high polyreactivity |
| QVQLVESGGGLVQAGGSLRLSCAASGRIFYFYAMGWYRQAPGKERELVAAISTSGGSTYYPDSVKGRFTISRDNAKNTVYLQMNSLKQEDTAVYYCAARFRYYGSEYDYWGQGTQVTVSS | low polyreactivity |
